Reference: US20230303695A1 (SHANGHAI XBH BIOTECHNOLOGY, published 2023)

T1: IGSF8 extracellular domain (ED) (Homo sapiens (Human), UniProt Q969P0 28-579)
T1 construct: also called IGSF8 ECD
T1 sequence: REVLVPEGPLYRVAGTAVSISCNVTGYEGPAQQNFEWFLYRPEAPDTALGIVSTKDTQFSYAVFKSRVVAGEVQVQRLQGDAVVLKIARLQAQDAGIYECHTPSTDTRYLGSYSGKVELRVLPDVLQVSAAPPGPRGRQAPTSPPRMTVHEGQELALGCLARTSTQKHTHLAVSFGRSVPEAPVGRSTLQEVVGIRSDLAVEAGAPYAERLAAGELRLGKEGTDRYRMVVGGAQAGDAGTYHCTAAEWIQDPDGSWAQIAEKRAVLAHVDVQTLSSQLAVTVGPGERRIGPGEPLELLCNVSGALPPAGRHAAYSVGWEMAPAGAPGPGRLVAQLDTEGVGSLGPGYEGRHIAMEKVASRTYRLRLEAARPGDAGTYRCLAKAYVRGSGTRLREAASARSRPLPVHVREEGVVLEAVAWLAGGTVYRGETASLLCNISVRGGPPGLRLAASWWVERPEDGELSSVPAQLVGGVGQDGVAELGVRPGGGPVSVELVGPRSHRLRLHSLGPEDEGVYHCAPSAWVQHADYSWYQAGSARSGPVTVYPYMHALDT

T2: human IGSF8 expressed on the cell surface (human, UniProt Q969P0 28-613)
T2 construct: whole, on cells; also called human IGSF8 on CT26 cells; IGSF8 on MC38 cells
T2 sequence (looked up): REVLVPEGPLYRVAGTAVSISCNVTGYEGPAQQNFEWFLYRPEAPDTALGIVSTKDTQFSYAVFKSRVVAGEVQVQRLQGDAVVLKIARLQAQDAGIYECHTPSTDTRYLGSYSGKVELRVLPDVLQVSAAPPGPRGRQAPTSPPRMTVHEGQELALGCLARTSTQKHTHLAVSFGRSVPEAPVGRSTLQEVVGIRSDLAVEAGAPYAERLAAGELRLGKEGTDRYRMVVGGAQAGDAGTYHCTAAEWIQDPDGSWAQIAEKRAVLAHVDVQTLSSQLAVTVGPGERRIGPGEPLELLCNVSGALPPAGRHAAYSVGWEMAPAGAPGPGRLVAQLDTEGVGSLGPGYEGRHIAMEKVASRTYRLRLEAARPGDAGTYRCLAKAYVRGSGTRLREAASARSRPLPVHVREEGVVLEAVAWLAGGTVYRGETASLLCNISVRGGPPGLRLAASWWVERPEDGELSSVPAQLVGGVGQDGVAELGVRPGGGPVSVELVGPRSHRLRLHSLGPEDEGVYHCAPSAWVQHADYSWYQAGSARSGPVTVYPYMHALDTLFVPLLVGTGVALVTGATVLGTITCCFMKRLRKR

T3: D1 domain of IGSF8 (recombinant protein) (human, UniProt Q969P0 28-149, limits assumed)
T3 construct: domain: D1 (Ig V-set domain); also called Ig V-set domain of IGSF8
T3 sequence (looked up): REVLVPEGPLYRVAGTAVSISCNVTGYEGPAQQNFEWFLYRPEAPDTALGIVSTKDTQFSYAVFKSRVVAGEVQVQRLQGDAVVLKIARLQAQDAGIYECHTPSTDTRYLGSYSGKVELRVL

T4: full-length IGSF8 (recombinant antigen of the SPR screen; IGSF8 target antigen of the phage panning) (human, UniProt Q969P0 28-579, limits assumed)
T4 sequence (looked up): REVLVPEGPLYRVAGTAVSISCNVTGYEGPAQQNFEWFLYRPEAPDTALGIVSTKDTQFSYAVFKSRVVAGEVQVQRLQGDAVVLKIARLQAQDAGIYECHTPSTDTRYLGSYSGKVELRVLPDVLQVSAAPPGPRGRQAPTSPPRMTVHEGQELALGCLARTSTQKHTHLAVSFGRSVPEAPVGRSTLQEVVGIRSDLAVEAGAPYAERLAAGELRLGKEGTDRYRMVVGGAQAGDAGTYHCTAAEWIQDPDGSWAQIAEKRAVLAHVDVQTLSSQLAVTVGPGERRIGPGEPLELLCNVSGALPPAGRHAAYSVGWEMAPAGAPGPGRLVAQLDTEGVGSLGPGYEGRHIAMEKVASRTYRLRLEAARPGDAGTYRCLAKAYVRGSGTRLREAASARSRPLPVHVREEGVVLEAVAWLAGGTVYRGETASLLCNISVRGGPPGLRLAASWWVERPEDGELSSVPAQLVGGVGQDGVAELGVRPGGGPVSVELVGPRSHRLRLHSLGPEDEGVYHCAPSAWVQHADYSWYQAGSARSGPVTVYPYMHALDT

T5: recombinant human IGSF8 extracellular domain tagged by a human Fc region (IGSF8-hFc) (human, UniProt Q969P0 28-579, biotin label in Examples 17, 18 and 28 (site not given))
T5 construct: also called IGSF8-Fc fusion protein; IGSF8-hFc-biotin; not shown: human Fc region
T5 sequence: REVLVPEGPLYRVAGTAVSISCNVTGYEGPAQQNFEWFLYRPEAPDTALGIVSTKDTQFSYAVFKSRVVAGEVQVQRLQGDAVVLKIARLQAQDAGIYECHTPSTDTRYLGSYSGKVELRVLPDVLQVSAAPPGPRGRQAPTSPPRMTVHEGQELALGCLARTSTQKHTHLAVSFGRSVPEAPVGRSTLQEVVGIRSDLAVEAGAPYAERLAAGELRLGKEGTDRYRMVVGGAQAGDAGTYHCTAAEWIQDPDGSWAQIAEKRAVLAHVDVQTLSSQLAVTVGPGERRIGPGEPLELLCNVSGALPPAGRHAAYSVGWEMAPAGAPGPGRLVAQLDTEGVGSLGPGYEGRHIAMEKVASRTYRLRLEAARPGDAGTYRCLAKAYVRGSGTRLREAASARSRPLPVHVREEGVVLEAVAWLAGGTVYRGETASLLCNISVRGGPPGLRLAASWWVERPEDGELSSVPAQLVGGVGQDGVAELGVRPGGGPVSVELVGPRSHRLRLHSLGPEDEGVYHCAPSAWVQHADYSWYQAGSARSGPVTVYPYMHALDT


Assays:
[1] = target: T1, IGSF8 extracellular domain (ED); assay: ELISA on IGSF8 extracellular domain
[2] = target: T2, human IGSF8 expressed on the cell …; assay: FACS on CT26 cells with forced surface expression of human IGSF8
Experimental: For antibody binding assays based on cell-expressed antigens, 100,000 cells overexpressing the antigen (either the full-length IGSF8 or the D1 domain thereof) were washed with PBS buffer containing 2% FBS, and then incubated with 100 μL of antibodies or IgG of different concentrations for 30 minutes on ice. Cells were then washed twice with wash buffer, and incubated with 100 μL of 1:100 anti-human Fc-PE antibody for 15 minutes on ice. Cells were washed twice with wash buffer and analyzed on a FACS analyzer (CytoFlex, Beckman).

[3] = target: T3, D1 domain of IGSF8 (recombinant protein); assay: SPR, Biacore T100
[4] = target: T4, full-length IGSF8 (recombinant antigen …); assay: SPR, Biacore T100
[5] = target: T5, recombinant human IGSF8 extracellular …; assay: FACS, biotin-labelled IGSF8-hFc on CT26 cells expressing the KIR, MFI normalized to Thy1.1
Experimental: For this experiment, different human KIR receptors (KIR2DL1, KIR2DL2, KIR2DL3, KIR2DL4, KIR2DL5A, KIR2DL5B, KIR3DL1, KIR3DL2, KIR3DL3) were first cloned into a proprietary lentiviral vector containing a thy1.1 tag (FIG. 17A). Then mouse CT26 cells, were transducted by these lentiviral constructs, and IGSF8 binding was tested with biotin-labelled recombinant IGSF8 hFc fusion protein. The mean fluorescence intensity (MFI) of IGSF8 binding to different CT26 cells were normalized by the expression of different KIRs on CT26 cells using an anti-thy1.1 mAb (Biolegend) via flow cytometry.
KLRC1 also contains a ITIM motif in its intracellular domain, and was known to be a inhibitory receptor of NK or CD8⁺ T cells as part of a heterodimer with KLRD1 on the cell surface. […] Specifically, 100,000 CT26 cells overexpressing the antigens (KIRs or KLRs) were washed with PBS buffer containing 2% FBS, and incubated with 100 μL IGSF8 recombinant proteins or antibodies (5 μg/mL) for 30 minutes on ice. Cells were then washed twice with wash buffer, and incubated with 100 μL of 1:100 anti-human Fc-PE antibody for 15 minutes on ice. Cells were washed twice with wash buffer and analyzed on a FACS analyzer (CytoFlex, Beckman). In these experiments, the mean fluorescence intensity (MFI) of IGSF8 binding to different CT26 cells were normalized by the expression of different KLRs on CT26 cells using an anti-thy1.1 mAb via flow cytometry.

| Binder | binding result [1] | Kd [3] | Kd [4] | also measured |
| --- | --- | --- | --- | --- |
| Antibody C37 (3F12) (antibody, V domains shown, also called mAb-3F12(C37)) VH: EVQLVQSGGGLVKPGGSLRLSCAASGFTFSSYSMNWVRQAPGKGLEWVSSISSSSSYIYYADSVKGRFTISRDNAKNSLYLQMNSLRAEDTAVYYCAGRQYDFWSGWDWFDPWGQGTLVTVSS VL: DIQLTQSPSSLSASVGDRVTITCRASQSISTYLNWYQQKPGKAPKLLIHDASILQSGVPSRFSGSGSGTDFTLTISSLQAEDFATYYCQQSYSTLPYTFGQGTKVEIK | – | < 50 nM | 22.5 nM | EC50 [2]: 5.93 nM |
| Antibody C34 (1D7) (antibody, V domains shown, also called mAb-1D7 (C34)) VH: EVQLLESGGGLVQPGGSLRLSCAVSGFTFNSFAMSWVRQAPGKGLEWVSAISGSGGGTYYADSVKGRFTISRDNSKNTLYLQMNSLRAEDTAIYYCAREVDGYGAFDIWGQGTMVTVSS VL: DIQMTQSPSSLSASVGNRVTITCRASQTIRNYLNWYQQKPGEAPKVLIYGASTLQSGVPSRFSASGSGTDFTLTISSLQPDDFATYHCQQTFSDPYTFGQGTKVEIK | – | < 50 nM | 2.12 nM | – |
| KIR2DL2 expressed on CT26 cells (receptor, human, UniProt P43627 22-348, looked up, whole, on cells) HEGVHRKPSLLAHPGRLVKSEETVILQCWSDVRFEHFLLHREGKFKDTLHLIGEHHDGVSKANFSIGPMMQDLAGTYRCYGSVTHSPYQLSAPSDPLDIVITGLYEKPSLSAQPGPTVLAGESVTLSCSSRSSYDMYHLSREGEAHECRFSAGPKVNGTFQADFPLGPATHGGTYRCFGSFRDSPYEWSNSSDPLLVSVIGNPSNSWPSPTEPSSKTGNPRHLHILIGTSVVIILFILLFFLLHRWCSNKKNAAVMDQESAGNRTANSEDSDEQDPQEVTYTQLNHCVFTQRKITRPSQRPKTPPTDIIVYAELPNAESRSKVVSCP | – | – | – | binding result [5]: no binding |
| Antibody C4 (antibody, V domains shown, also called anti-IGSF8 C4) VH: QVQLLQSGGGLVQPGGSLRLSCAASGFTFSRYRMGWVRQAPGKGLEWVSSIARSGGRTYYADSVKGRFTISRDNSKNTLYLQMNSLRAEDTAVYYCARGVRYCSSPSCSRGPRYAMDVWGKGTTVTVSS VL: EIVMTQSPSSVSASVGDRVTITCRASQGISSWLAWYQQKPGKAPKLLIYAASSLQSGVPSRFSGSGSGTDFTLTISSLQPEDFATYYCQQANSFPITFGQGTRLEIKR | binds | – | – | – |

The next lines start with results.

| binding result [1] | Kd [3] | Kd [4] | Binder | also measured |
| --- | --- | --- | --- | --- |
| binds | – | – | Antibody C5 (antibody, V domains shown, also called anti-IGSF8 C5) VH: EVQLVQSGGGLVQPGGSLRLSCAASGFTFSRYRMAWVRQAPGKGLEWVSNITRSGGVTRYADSVKGRFTISRDNSKNTLYLQMNSLRAEDTAVYYCARDPNRVTAISSHYGMDVWGKGTTVTVSS VL: EIVLTQSPSTLSASVGDRVTISCRASQSISRWLAWYQQKPGQAPRLLIYDASNRATGVPARFSVSGSETDSTLTISSLEPEDFAMYYCQQRSNWPPMYTFGQGTKLEIKR | – |
| binds | – | – | Antibody C6 (antibody, V domains shown, also called anti-IGSF8 C6) VH: EVQLVESGGGLVQPGGSLRLSCAASGFTFSPYRMHWVRQAPGKGLEWVSRINPSGGRTWYADSVKGRFTISRDNSKNTLYLQMNSLRAEDTAVYYCARDATGRHYNGMDVWGQGTMVTVSS VL: DIQMTQSPSTLSASVGDRVTITCRASQSINKWLAWYQQKPGKAPKLLIYKASTLESGVPSRFSGSGSGTDFTLTINSLQPEDFATYYCQQSHSAPWTFGQGTKVEIER | – |
